Experimental data from the DeepSol protein solubility set.

assay: soluble on expression in E. coli; label from the status in PepcDB or PDB records

Sequence | soluble on expression in E. coli
MGSSHHHHHHSSGRENLYFQGMADQDQLKALRLRIDSLDEKLLELISERARCAQDVARVKTQTLGEGEAPVFYRPEREAWVLKHIMQLNKGPLDNEEVARLFREIMSSCLALEQPLKVAYLGPEGTFTQAAALKHFGNAVISTPMAAIDEVFREVAAGAVNFGVVPVENSTEGAVNHTLDSFLEHDMVICGEVELRIHHHLLVGETTKTDNITRIYSHAQSLAQCRKWLDSHYPSVERVAVSSNADAAKRVKSEWNSAAIAGDMAASLYDLSKLHEKIEDRPDNSTRFLIIGNQEVPPTGDDKTSIIVSMRNKPGALHELLVPFHNNGIDLTRIETRPSRSGKWTYVFFIDFVGHHKEPLIKDVLEKIGQEAVALKVLGSYPKAVL | soluble
MTAPKVFVSHASEDKARFVVDFARRLRENGVDAWLDQWEMKPGDSLVDKIFEEGLREARAVVIVLSATSVRKPWVREELNASVVNRISRGTKLIPVVIDDCDVPEALRSTVLEHHHHHH | not soluble
MRKLTALFVASTLALGAANLAHAADTTTAAPADAKPMMHHKGKFGPHQDMMFKDLNLTDAQKQQIHEIMKGQRDQMKRPPLEERRAMHDIIASDTFDKAKAEAQIAKMEEQRKANMLAHMETQNKIYNILTPEQKKQFNANFEKRLTERPAAKGKMPATAELEHHHHHH | soluble
MGSDKIHHHHHHMNYIYSFINGDFMRFFNREKEITEILSILEGNPDLVYFVYGPLNSGKTALISEIINNRIDKNKYVVFYINLRGIFISKYKDFIEVLFEEYEEDRKPVEIIKSLIKDVPSLCGIPTPKNTLEEILKKKTTKNVFKYITNVLMDIKKEGKQPIIIIDELQKIGDMKINGFLIYELFNYFVDLTKELHLCHVFCLSSDSLFIEQVYSEAMLKDRVDYILVDDFDKETALKFMDFLAEEILNKKLSDDEKELIYSYVGGKPILIIKVIKKLKIKGLKETLDEMLRDEMQKLKYFLEDIKEKDEESYNKIADALEIFKDSYEIEDIKIPKNIREFLVKKNILFLNPQKGTLKPQSYLVWNAIKRLL | not soluble
MGSDKIHHHHHHMSNVDRAEIAKFEALAHRWWDRESEFKPLHEINPLRVNWIDERVSLAGKKVLDVGCGGGILSEAMALRGATVTGIDMGEAPLAVAQLHQLESGVQVEYRQITAEALAEEMPEQFDVVTCLEMLEHVPDPSSVIRACYRMVKPGGQVFFSTINRNPKAYLLAIVGAEYILKMLPRGTHDFKKFIRPSELGAWSRDAGLQVKDIIGLTYNPLTKHYKLNSDVDVNYMIQTLREE | not soluble
MGSDKIHHHHHHMAATLKLSQLISALSYALDITEGQPEGHCVRSCWIGMHIGRALGLAPQELWDLYYAILLKDLGCSSNAARICELYRTDDRSFKQDFKQVGASLPQMLGFVFSHTGTHAAGWRERAASVVQVLRRGKEMADELINTRCHRGADIARQLRFNENVANGIQYLDEHWDGSGRPLGLQRDAIPLNARIALLAQVIDVFHVTHGRHAALDEAVRRGGGWFDPELVAAFRGASRDTAFWQRLESDDIERAVLALEPAQCTVPLDEDYMDEIAEGFGQVVDSKSPFTAGHSQRVGHYADRIGEELGLSPQRRRWLKRGALLHDVGKLGVSNTILDKPGKLTPEEWEAVKLHASHTETILGRIESFAELAKVAGAHHERLDGKGYPRGLMASEIALETRVITTADIFDAIHAARPYHPENPVPETLDIMRKNLGSALDPACFEALEAVLREEDALESDAICLT | not soluble
MKITPLDIQQQQFKGKMLGGIDPEDVDSFLQLVAQEMEGLIRENTDLREQCRKAAADAEQTARQERELREAMLAAQKITEEMKANAQKEASLIVSEAEVKAEKILVDAERRLGQLNEQLQDLRRQKLQFESAFKALLDTHYKMISLEDA | not soluble
MQEKDCIFCKIVRGEVPAKKVYEDDKVLAFHDINPVAPVHILIIPKKHIMGIQTLEPEDECLVGHMFYVARKIAEDLGIAPDENLNKGYRLVFNVGKDAGQSVFHLHLHLIGGREMSWPPG | soluble
MTDVARLLALRSFTELGARQRARALLDAGSFRELLDPFAGVQSPWLERQGIVPQADDGVVVARGLLDGQPAVLAAIEGAFQGGSLGEVSGAKIAGALELAAEDNRNGVPTRALLLLETGGVRLQEANLGLAAIAEIQAAIVDLQRYQPVVAVIAGPVGCFGGMSIAAGLCSYVLVTREARLGLNGPQVIEQEAGIAEYDSRDRPFIWSLTGGEQRFASGLADAYLADDLDEVRTSVLAYFAKGLPARPRCRRAEDYLRRLGDLDTAEQPDAAGVRRLYQGLGQGDAT | not soluble
MDLEFGRFPIFSILEDMLEAPEEQTEKTRNNPSRAYMRDAKAMAATPADVIEHPDAYVFAVDMPGIKGDEIQVQIENENVLVVSGKRQRDNKENEGVKFVRMERRMGKFMRKFQLPDNADLEKISAACNDGVLKVTIPKLPPPEPKKPKTIQVQVA | soluble
MEADGLGCAVCVLTGASRGFGRALAPQLARLLSPGSVMLVSARSESMLRQLKEELGAQQPDLKVVLAAADLGTEAGVQRLLSAVRELPRPEGLQRLLLINNAATLGDVSKGFLNVNDLAEVNNYWALNLTSMLCLTSGTLNAFQDSPGLSKTVVNISSLCALQPYKGWGLYCAGKAARDMLYQVLAAEEPSVRVLSYAPGPLDNDMQQLARETSKDPELRSKLQKLKSDGALVDCGTSAQKLLGLLQKDTFQSGAHVDFYD | soluble
MLSKKELAIITFLIHHKEQFVSSATLAEVIGMSDRTVRKYLKELISSLPEHGAHIISKQGRGYCLEIDHSMAFDIFWQESVTSKKRLADVTQVEESVDREDYVLHKFFFEDAVQDFEELCQELYISRTTLKHVLAGIKERIIPYQLELEITHQHIQIRGKEEDIRHFIMDYFFVTSFDNTLSTMVGNTFLEGINFAEIMIIVLDECRDAKLKLSDFVMNNLVLHIALMVQRIRSGCPLELFSIPIAIRQSDEYQVALRILYRVEEVMGIRFPKEEANYIALHLKVKHSVGKHWQDDNTDEKLQDHLKACIAKISQLTGMTLETDTNLFQGLLAHMMPLTIRLENHIQLTNPLTEEIKSQYPEIFTLTKQTFSDLLVCQKNDVSDDEWAYISLHLMAAIERYSNRHKLRVLVVCATGYGSAMMLKNRLEKEFEGRLRIVDVISYYEITEERLKTVDLIISSISLANLMFLTPVITVSVFLSNQDIETIRQFIGEQEGIKKEVSLPSQMSLAKAEQLLTGVFSPNRFLYLDEKISKEDLLLRMIACLDEAGTETFVEDFYHQMVLRENYSPVIYGEVLAFPHPANPMTYSEQVVVVICREPLEWDKAHQAVHFVFLLSPSKGHNHRLKYVSPGLASFVNQVELQQALLEEPNYSKFMTVFTPLIHD | not soluble
MESKSVDTRSIYRELGATLSYNMRLGNGMEIEPWLKAAVRKEFVDDNRVKVNSDGNFVNDLSGRRGIYQAGIKASFSSTLSGHLGVGYSRGAGVESPWNAVVGVNWSF | not soluble
KRSNSIKRNPNAPVVRRGWLYKQDSTGMKLWKKRWFVLSDLCLFYYRDEKEEGILGSILLPSFQIALLTSEDHINRKYAFKAAHPNMRTYYFCTDTGKEMELWMKAMLDAALVQT | soluble
MSLENKHVTIYDIAERLNLATSTISRALKDHHTISDKTIKKVKKTAEEMGFVPNTLAAGLRGNKTRTIGVLIPTVTQPFLSSLISGIEITAQKSDYTVIIMQSHDSYEEEVNMAKSLYSNRVSGVICSLAMETRDTAHFHQFSNNNIPLVFVDRVPKDYNTFRVVIDNYTAGYKATKHLIEQGCIRIAHLTAGSELGNLYNERKRGYIEALKDHNIEVEEELIINLNSVTYEDGVKASNALFDLKPIPDGLFAPGDILAVSAVQTAKKRGTKVPEEFKVIGFNNDPISQIIDPNLSTITHPAEKMGKAAAEIIIKNLKSSKNDDAKEITFLNTEVLARESSSKEGHHHHHH | soluble
MLQKPKSVKLRALRSPRKFGVAGRSCQEVLRKGCLRFQLPERGSRLCLYEDGTELTEDYFPSVPDNAELVLLTLGQAWQGYVSDIRRFLSAFHEPQVGLIQAAQQLLCDEQAPQRQRLLADLLHNVSQNIAAETRAEDPPWFEGLESRFQSKSGYLRYSCESRIRSYLREVSSYPSTVGAEAQEEFLRVLGSMCQRLRSMQYNGSYFDRGAKGGSRLCTPEGWFSCQGPFDMDSCLSRHSINPYSNRESRILFSTWNLDHIIEKKRTIIPTLVEAIKEQDGREVDWEYFYGLLFTSENLKLVHIVCHKKTTHKLNCDPSRIYKPQTRLKRKQPVRKRQLEHHHHHH | not soluble
MRVVYTSPRIENLQFLKSEFSNYSVIVLEEPKNDLFHDVLEGKITVDLYVRKISTQFPLYTRKLIEMLKELKSREIMQVEPYLEEVERLKNFSEGDERVREMEKRVNALYIDYTESFLKSDFDEIVEKVLRFSEAEAERIMLRDEMRAKALDDLDEAVIEAGMNHIKLAEILDAESVRIPEIIAERLGTRYLENPGEKLLKAFIFEEDDDLRLLAARNLIFTSLLEKREMEPDFDGDYPHFTHEQKLVRFVDKLDYEKCRKLFYRFWSPR | not soluble
KRKDITLLNPIVRKFQYGQHTVTLETGMMARQATAAVMVSMDDTAVFVTVVGQKKAKPGQDFFPLTVNYQERTYAAGRIPGSFFRREGRPSEGETLIARLIDRPIRPLFPEGFVNEVQVIATVVSVNPQVNPDIVAMIGASAALSLSGIPFNGPIGAARVGYINDQYVLNPTQDELKESKLDLVVAGTEAAVLMVESEAQLLSEDQMLGAVVFGHEQQQVVIQNINELVKEAGKPRWDWQPEPVNEALNARVAALAEARLSDAYRITDKQERYAQVDVIKSETIATLLAEDETLDENELGEILHAIEKNVVRSRVLAGEPRIDGREKDMIRGLDVRTGVLPRTHGSALFTRGETQALVTATLGTARDAQVLDELMGERTDTFLFHYNFPPYSVGETGMVGSPKRREIGHGRLAKRGVLAVMPDMDKFPYTVRVVSEITESNGSSSMASVCGASLALMDAGVPIKAAVAGIAMGLVKEGDNYVVLSDILGDEDHLGDMDFKVAGSRDGISALQMDIKIEGITKEIMQVALNQAKGARLHILGVMEQAINAPRGDISEFAPRIHTIKINPDKIKDVIGKGGSVIRALTEETGTTIEIEDDGTVKIAATDGEKAKHAIRRIEEITAEIEVGRVYTGKVTRIVDFGAFVAIGGGKEGLVHISQIADKRVEKVTDYLQMGQEVPVKVLEVDRQGRIRLSIKEATEQSQPAAAPEAPAAEQGEHHHHHH | soluble
MGSDKIHHHHHHMAYPFNHKEFVAMMEQYNLKSNSITIPEHTILNDLVTENRDCVYLLKSGILAGYIDFDNDKIYSIFTSNFFMGYYTIFDNASLVLTYQTLTECELIIYKKKDIEYSLSLFPENFSFQYTIMRTIAKHGYYKSLLQYRDKKDQLAFVFEMLVKILDIPVEDGVAVLPKSISTTVIKNYCTLSKAFFYSQLKELKEAGIISKVKLQWRINMEALSEKNNSIN | not soluble
MAHHHHHHMGGRTAFEDVCANEAKAWSICLETNLGGKDVRKKCGEQQQTFDTCVSAWRTKVGNAVQVKGENEGDPPFQCASMACHIGECLRKYNYDFDRCEPHTQFFKYCVKSFYGQDYIS | not soluble
MSLENPYQLVEDIEGIGFKRADNLAEQIGIAADSPRRIRAAILHQIFQHAVQTGDTYVPAETLLQQTIRILETSRPIEIQPDQVATVIIQLVEEGKIQQEETNLYENSLYFSEWGIGNSIQRLLSRKKEIHYPEKEVQKNIRRIEKIFGIQYGPSQEQAIAEAIRSPLFILTGGPGTGKTTVINGIVNLFAELNGLELDPSKYTQEIFPILLAAPTGRAAKRMNETTGLPASTIHRLLGLNGREKTPSVSTKELEGGLLIVDEMSMVDTWLANTLFKAIPTNMQVILVGDKDQLPSVGPGQVLHDLLEIEQIPKMELNQIYRQGDGSSIIPLAHEIKEGRLPKDFTKNQKDRSYFRSDAYQIEPLISKIVEKAKNKGFRAQDIQVLAPMYRGPAGIDALNKMMQEIFNPGKPGKKEVHWNDTVYRIGDKVLQLVNTPELNVFNGDMGEITGIILAKDSEDKVDELVIQFDANEVTYKRNEWNKITLSYCCSIHKSQGSEFKMVILPMVHQYQRMLQRNLLYTAVTRSKELLILLGEEQAYVTCVANESASRMTTLKSRIMDNDKMNEGHHHHHH | soluble
